Test results reported in patent US20050037969A1 (ARBOR VITA, published 2005).
Ends that are not written are not given here. * marks the point of attachment. Biotin = O=C1N[C@H]2[C@H](CS[C@H]2CCCCC(=O)*)N1

Legend:
Test in all cases: A/G assays
[1] = molecular target: T1, GST-TAX-IP43 PDZ domain fusion protein (human, UniProt Q13884 109-180)
T1 construct: also called TAX43; not shown: glutathione S-transferase encoded by vector pGEX-3X (Pharmacia)
T1 sequence: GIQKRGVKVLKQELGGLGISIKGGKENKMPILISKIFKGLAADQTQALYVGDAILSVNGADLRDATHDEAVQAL

[2] = molecular target: T2, GST-TAX-IP2 PDZ domain fusion protein (human, UniProt O14908 129-216)
T2 construct: also called TAX-1P2; TAX2; not shown: glutathione S-transferase encoded by vector pGEX-3X (Pharmacia)
T2 chain: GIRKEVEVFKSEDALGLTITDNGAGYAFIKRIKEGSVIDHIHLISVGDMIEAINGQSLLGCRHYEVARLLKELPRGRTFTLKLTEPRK

[3] = molecular target: T3, GST-PTN-4 PDZ domain fusion protein (Homo sapiens (Human), UniProt P29074 517-605)
T3 construct: also called protein-tyrosine phosphatase meg1; not shown: glutathione S-transferase encoded by vector pGEX-3X (Pharmacia)
T3 sequence: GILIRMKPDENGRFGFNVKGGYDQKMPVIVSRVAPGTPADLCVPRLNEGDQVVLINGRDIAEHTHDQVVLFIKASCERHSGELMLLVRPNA

[4] = molecular target: T4, GST-MPP1 PDZ domain fusion protein (Homo sapiens (Human), UniProt Q00013 67-152)
T4 construct: also called p55; 55 Kd erythrocyte membrane protein; not shown: glutathione S-transferase encoded by vector pGEX-3X (Pharmacia)
T4 sequence: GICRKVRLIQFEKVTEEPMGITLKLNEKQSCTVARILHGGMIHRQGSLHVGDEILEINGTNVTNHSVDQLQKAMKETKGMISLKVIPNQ

[5] = molecular target: T5, GST-AF6 PDZ domain fusion protein (Homo sapiens (Human), UniProt P55196 1001-1093)
T5 construct: also called af-6 protein; not shown: glutathione S-transferase encoded by vector pGEX-3X (Pharmacia)
T5 sequence: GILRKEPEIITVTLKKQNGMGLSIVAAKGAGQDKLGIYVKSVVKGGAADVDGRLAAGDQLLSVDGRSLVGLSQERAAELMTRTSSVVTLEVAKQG

[6] = molecular target: T6, GST-RGS12 PDZ domain fusion protein (human, UniProt O14924 17-85)
T6 construct: also called human regulator of G-protein signalling 12; not shown: glutathione S-transferase encoded by vector pGEX-3X (Pharmacia)
T6 sequence: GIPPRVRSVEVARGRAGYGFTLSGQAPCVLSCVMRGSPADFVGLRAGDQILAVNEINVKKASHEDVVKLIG

[7] = molecular target: T7, GST-TIAM1 PDZ domain fusion protein (Homo sapiens (Human), UniProt Q13009 845-931)
T7 construct: also called TLAM1; T-lymphoma invasion and metastasis inducing protein 1; not shown: glutathione S-transferase encoded by vector pGEX-3X (Pharmacia)

[8] = molecular target: T8, GST-DVL1 PDZ domain fusion protein (human, UniProt O14640 247-339)
T8 construct: also called human dishevelled segment polarity protein homolog; not shown: glutathione S-transferase encoded by vector pGEX-3X (Pharmacia)
T8 sequence: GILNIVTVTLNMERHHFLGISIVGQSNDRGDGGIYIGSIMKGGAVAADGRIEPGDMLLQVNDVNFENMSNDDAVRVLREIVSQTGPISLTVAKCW

[9] = molecular target: T9, GST-KIAA0303 PDZ domain fusion protein (Homo sapiens (Human), UniProt O15021 1138-1228)
T9 construct: also called K303; not shown: glutathione S-transferase encoded by vector pGEX-3X (Pharmacia)
T9 sequence: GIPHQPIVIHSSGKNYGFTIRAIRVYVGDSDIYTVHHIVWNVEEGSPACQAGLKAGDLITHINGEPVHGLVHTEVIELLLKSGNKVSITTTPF

[10] = molecular target: T10, KIAA0807 (PDZ domain)-GST fusion protein (human, UniProt Q6P0Q8 1104-1192)
T10 construct: also called K807; KIAA807; not shown: glutathione S-transferase encoded by vector pGEX-3X (Pharmacia)
T10 sequence: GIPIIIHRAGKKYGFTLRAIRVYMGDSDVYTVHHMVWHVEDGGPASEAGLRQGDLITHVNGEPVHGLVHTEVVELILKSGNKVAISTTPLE

[11] = molecular target: T11, X11β PDZ-GST fusion protein (Rattus norvegicus (Rat), UniProt O35431 560-745)
T11 construct: Order of GST and PDZ part and limits not seen in the excerpts
T11 chain: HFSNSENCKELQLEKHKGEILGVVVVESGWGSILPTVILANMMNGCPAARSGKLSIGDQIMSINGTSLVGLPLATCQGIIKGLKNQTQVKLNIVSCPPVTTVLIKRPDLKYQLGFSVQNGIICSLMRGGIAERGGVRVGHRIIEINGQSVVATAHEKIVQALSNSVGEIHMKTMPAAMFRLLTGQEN

[12] = molecular target: T12, TAX-IP2L PDZ-GST fusion protein (Homo sapiens (Human), UniProt Q8TF64 107-197)
T12 construct: Order of GST and PDZ part and limits not seen in the excerpts
T12 sequence: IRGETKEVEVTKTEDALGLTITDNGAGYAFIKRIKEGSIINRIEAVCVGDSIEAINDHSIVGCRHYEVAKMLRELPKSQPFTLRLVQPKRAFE

[13] = molecular target: T13, TAX-IP33 PDZ-GST fusion protein (Homo sapiens (Human), UniProt O14910 103-193)
T13 construct: Order of GST and PDZ part and limits not seen in the excerpts
T13 sequence: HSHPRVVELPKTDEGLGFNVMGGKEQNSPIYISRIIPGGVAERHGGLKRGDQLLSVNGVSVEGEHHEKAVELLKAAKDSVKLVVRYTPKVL

[14] = molecular target: T14, K316 PDZ-GST fusion protein (Homo sapiens (Human), UniProt Q14CM0 72-159)
T14 construct: Order of GST and PDZ part and limits not seen in the excerpts

[15] = molecular target: T15, SP short PDZ-GST fusion protein (Homo sapiens (Human), UniProt O43464 350-435)
T15 construct: The label SP short is not explained in the excerpts
T15 sequence: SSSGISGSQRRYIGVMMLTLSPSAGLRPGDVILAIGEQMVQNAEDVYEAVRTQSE

[16] = molecular target: T16, GEF PDZ-GST fusion protein (Homo sapiens (Human), UniProt Q8TEU7 293-400)
T16 construct: The label GEF is not explained in the excerpts
T16 sequence: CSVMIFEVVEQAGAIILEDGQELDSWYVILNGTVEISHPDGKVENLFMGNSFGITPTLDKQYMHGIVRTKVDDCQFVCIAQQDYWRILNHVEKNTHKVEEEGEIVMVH

Measured: binding result

T14 sequence (Q14CM0 72-159 limits assumed): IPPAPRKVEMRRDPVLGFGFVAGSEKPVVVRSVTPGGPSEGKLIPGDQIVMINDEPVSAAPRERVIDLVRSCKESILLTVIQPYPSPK
T7 sequence (Q13009 other isoform, or with tags, fused parts or gaps): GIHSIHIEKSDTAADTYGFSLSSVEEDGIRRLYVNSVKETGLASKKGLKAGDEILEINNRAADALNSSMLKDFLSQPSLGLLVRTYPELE

B1: CD5 C-terminal peptide AA49L (peptide)
peptide: Biotin-SMQPDNSSDSDYDLHGAQRL
notes: Only the last four residues are seen in the excerpts
no binding: all assays above

Biotin-SSKSKSSEESQTFFGLYKL (not fully specified, also called FasLigand; Fas ligand) [FasL C-terminal peptide AA23L-M, biotinylated]
no binding: all assays above

Biotin-STNHSIGSTQSTPCSTSSMA (also called CD105 (endoglin)) [CD105 C-terminal peptide AA16L, biotinylated]
no binding: all assays above

B2: CD62E C-terminal peptide AA48L (peptide)
peptide: Biotin-SSSQSLESDGSYQKPSYIL
notes: as for B1
no binding: all assays above
